These are literature values, as cited in PMC2669593.

Usually Kd stands for the free concentration of one partner at which half of the binding sites on the other are occupied at equilibrium, for simple one-to-one binding.

This data set concerns the target CaVβ1b (UniProt Q02641).
Chain of UniProt Q02641 (Q02641 whole entry): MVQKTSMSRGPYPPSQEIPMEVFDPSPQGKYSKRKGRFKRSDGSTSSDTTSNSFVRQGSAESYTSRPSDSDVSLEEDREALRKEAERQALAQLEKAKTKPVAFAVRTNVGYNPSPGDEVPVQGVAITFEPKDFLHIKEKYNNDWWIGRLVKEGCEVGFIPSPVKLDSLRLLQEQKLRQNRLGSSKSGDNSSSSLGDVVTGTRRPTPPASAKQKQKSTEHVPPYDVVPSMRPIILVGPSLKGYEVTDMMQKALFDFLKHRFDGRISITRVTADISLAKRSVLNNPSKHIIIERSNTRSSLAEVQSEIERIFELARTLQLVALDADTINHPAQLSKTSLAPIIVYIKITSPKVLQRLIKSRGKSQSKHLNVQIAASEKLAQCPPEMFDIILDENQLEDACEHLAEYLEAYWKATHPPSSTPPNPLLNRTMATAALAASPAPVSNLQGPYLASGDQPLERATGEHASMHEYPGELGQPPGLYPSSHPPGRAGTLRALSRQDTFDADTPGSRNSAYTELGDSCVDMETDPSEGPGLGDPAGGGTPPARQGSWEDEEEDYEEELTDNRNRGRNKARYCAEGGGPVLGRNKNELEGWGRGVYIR

“CaV2.2 I-II linker (from UniProt Q00975)”: the Kd is 10 nM.
